Assay results reported in US20140323699A1 (CALIFORNIA INSTITUTE OF TECHNOLOGY, published 2014).

Target: T1, glycosylated synapsin I from olfactory bulb lysate (rat, UniProt P09951 1-704, limits assumed, Fucα(1-2)Gal glycosylated (sites not given))
T1 construct: Endogenous protein in tissue lysate, detected by Western blot with mouse anti-synapsin I ascites
Experiment: lectin affinity chromatography on UEAI-agarose, elution with 200 mM L-fucose, Western blot for synapsin I

B1: UEAI lectin conjugated to agarose (Vector Laboratories) (other, UniProt P22972 1-243, looked up)
chain: SDDLSFKFKNFSQNGKDLSFQGDASVIETGVLQLNKVGNNLPDETGGIARYIAPIHIWNCNTGEVASFITSFSFFMETSANPKAATDGLTFFLAPPDSPLRRAGGYFGLFEDTKDNDSSYQTVAVEFDTIGSPVNFDDPGFPHIGIDVNRVKSINAERWNKRYGLNNVANVEIIYEASSKTLTASLTYPSDQTSISVTSIVDLKEILPEWVSVGFSGGTYIGRQATHEVLNWYFTSNLINTNS
modifications: conjugated to agarose
Question: Does B1 bind?
Answer: no binding (tested: 500 µg lysate)
